Data on six molecules can be found in article PMC12256043, “Integrated platform for structural and functional analysis of terpene synthases of Cannabis sativa” (PeerJ, 2025).

Experiment in all cases: malachite green assay coupled to inorganic pyrophosphatase
Holding throughout (conditions): pH 7.5, 5 mM MgCl2, 37 °C, 30 min

The target in one series is T1, CsTPS12PK (Cannabis sativa, UniProt A0A1V0QSF4).
T1 construct: gene TPS33PK; printed as CsTPS12PK/CsTPS33PK; E. coli; monomer
It is filed as biochemical. The text has this:
malachite green assay coupled to inorganic pyrophosphatase on CsTPS12PK

In a further series the target is T2, CsTPS13PK (Cannabis sativa, UniProt A0A1V0QSG1).
T2 construct: gene TPS13PK; E. coli BL21(DE3); monomer
T2 sequence (A0A1V0QSG1 41-640): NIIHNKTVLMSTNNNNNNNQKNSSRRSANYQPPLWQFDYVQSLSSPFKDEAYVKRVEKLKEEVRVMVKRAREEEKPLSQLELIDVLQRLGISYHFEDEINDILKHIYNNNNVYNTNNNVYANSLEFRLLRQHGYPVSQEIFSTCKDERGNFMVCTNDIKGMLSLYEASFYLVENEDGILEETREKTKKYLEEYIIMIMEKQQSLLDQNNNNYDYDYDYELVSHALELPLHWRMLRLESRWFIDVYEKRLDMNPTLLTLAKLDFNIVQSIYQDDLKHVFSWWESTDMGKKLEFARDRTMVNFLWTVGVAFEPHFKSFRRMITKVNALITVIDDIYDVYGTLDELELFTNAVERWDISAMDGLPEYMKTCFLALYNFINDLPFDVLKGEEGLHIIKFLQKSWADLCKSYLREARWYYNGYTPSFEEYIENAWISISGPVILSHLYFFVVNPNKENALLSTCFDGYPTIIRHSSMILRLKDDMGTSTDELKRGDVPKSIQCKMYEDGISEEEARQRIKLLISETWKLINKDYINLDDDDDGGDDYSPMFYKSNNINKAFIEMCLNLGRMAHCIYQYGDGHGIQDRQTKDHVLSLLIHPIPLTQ
It is filed as biochemical. The text has this:
malachite green assay coupled to inorganic pyrophosphatase on CsTPS13PK

Substrate in series [1]: CC(C)=CCC/C(C)=C/COP(=O)(O)OP(=O)(O)O
It is filed as biochemical, Cannabis sativa. The text has this: malachite green assay coupled to inorganic pyrophosphatase on CsTPS1SK

Substrate in series [2]: CC(C)=CCC/C(C)=C/COP(=O)(O)OP(=O)(O)O
It is filed as biochemical, Cannabis sativa. The source holds these as a separate data set.

Substrate in series [3]: CC(C)=CCC/C(C)=C/COP(=O)(O)OP(=O)(O)O
The format is biochemical, Cannabis sativa. The text has this:
malachite green assay coupled to inorganic pyrophosphatase on CsTPS3FN
The source holds these as a separate data set.

Substrate in series [4]: CC(C)=CCC/C(C)=C/CC/C(C)=C/CO[P@@](=O)(O)OP(=O)(O)O
It is filed as biochemical, Cannabis sativa. The source says:
malachite green assay coupled to inorganic pyrophosphatase on CsTPS16CC

Substrate in series [5]: CC(C)=CCC/C(C)=C/CC/C(C)=C/CO[P@@](=O)(O)OP(=O)(O)O
It is filed as biochemical, Cannabis sativa. The source says: malachite green assay coupled to inorganic pyrophosphatase on CsTPS20CT
The source holds these as a separate data set.

As a reminder, the Km is the substrate concentration at which the rate is half of its maximum.

T1 sequence (A0A1V0QSF4 34-615): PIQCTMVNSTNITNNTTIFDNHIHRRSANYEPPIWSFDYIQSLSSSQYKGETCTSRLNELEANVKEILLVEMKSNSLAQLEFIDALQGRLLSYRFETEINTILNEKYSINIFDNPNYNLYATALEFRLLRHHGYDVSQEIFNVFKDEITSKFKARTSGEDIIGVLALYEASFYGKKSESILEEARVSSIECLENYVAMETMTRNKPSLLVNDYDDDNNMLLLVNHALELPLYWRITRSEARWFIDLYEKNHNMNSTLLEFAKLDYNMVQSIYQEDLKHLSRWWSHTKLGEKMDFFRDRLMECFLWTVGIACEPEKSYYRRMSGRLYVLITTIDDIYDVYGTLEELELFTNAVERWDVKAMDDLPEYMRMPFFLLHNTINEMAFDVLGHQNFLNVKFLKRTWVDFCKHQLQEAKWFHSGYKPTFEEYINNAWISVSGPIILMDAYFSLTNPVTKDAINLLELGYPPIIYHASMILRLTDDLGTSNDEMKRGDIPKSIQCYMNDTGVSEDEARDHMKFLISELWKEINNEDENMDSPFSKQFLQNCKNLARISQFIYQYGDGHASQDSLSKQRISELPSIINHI

For the molecule `CC(C)=CCC/C(C)=C/COP(=O)(O)OP(=O)(O)O` [GPP, geranyl diphosphate], the Km at CsTPS12PK was found to be 41.8 ± 8.29 µM; at CsTPS13PK, 13 ± 1.23 µM.

B1: CsTPS1SK (Cannabis sativa) (protein)
chain: RSANYGPPIWSFDFVQSLPIQYKGESYTSRLNKLEKDVKRMLIGVENSLAQLELIDTIQRLGISYRFENEIISILKEKFTNNNNNPNPINYDLYATALQFRLLRQYGFEVPQEIFNNFKNHKTGEFKANISNDIMGALGLYEASFHGKKGESILEEARIFTTKCLKKYKLMSSSNNNNMTLISLLVNHALEMPLQWRITRSEAKWFIEEIYERKQDMNPTLLEFAKLDFNMLQSTYQEELKVLSRWWKDSKLGEKLPFVRDRLVECFLWQVGVRFEPQFSYFRIMDTKLYVLLTIIDDMHDIYGTLEELQLFTNALQRWDLKELDKLPDYMKTAFYFTYNFTNELAFDVLQEHGFVHIEYFKKLMVELCKHHLQEAKWFYSGYKPTLQEYVENGWLSVGGQVILMHAYFAFTNPVTKEALECLKDGHPNIVRHASIILRLADDLGTLSDELKRGDVPKSIQCYMHDTGASEDEAREHIKYLISESWKEMNNEDGNINSFFSNEFVQVKQNLGRASQMIYQYGDGHASQNNLSKERVLGLIITPIPM
notes: E. coli BL21(DE3); monomer
With B1, in series [1], the Km was determined as 7.809 ± 0.678 µM.

B2: CsTPS5FN (Cannabis sativa) (protein)
chain: MSLSGLISTTTFKEQPAIVRRSGNYKPPLWDAHFIQSLQVIYTEESYGKRINELKEDVRRILEKEAENPLVKLEQINDLSRLGISYHFEDQIKAILNLTYNNNNALWKKDNLYATALHFKLLRQYGFNPVSSEIFNAFKDEKKEFKESLSKDVKGMVCLYEASFYSFRGEPILDEARDFTTKHLKQYLMMTRQGQNVDHDDDNDLMVKLVEHALELPVHWRMKRLEARWFIDMYAEMSHHHHMNSTFLQLAKLDFNVVQSTYQEDLKHVVRWWKTTSLGERLPFARDRIVEIFLWSVGLKFEPQFRYCRKMLTKIGQLVTTMDDIFDVYGTLDELSLFQHALGRWDINTIDQLPDYMKIFFLATYNVVNEMAYDVLKQNGILIIKYLKKTWTDLCKCYMLEANWYHSGYTPSLEEYIKNGWISIAEPLILVNLYCLITNPIKEDDIDCLLQYPTFIRISGIIARLVDDLGTSSDELKRGDNPKSIQCYMKENGICDEKNGREHIRNLISETWKEMNEARVGESPFSQAFIETAIDFVRTAMMIYQKEQDGVGTNIDHYTKDGIISLFFTSIPI
notes: E. coli BL21(DE3); monomer
Consider B2, for which the Michaelis constant (Km) in series [2] is 23.3 ± 1.34 µM.

B3: CsTPS3FN (Cannabis sativa) (protein)
chain: RSANYEPPIWSFDYIQSLSTQYKGESYTRQLNKLKKEVKRMLLRMEINSLALLELIDTLQRLGISYHFKNEINTILKKKYNDNYINNNIITNPNYNNLYATALEFRLLRQHGYTVPQEIFNAFKDKRGKFKTSLSDDIMGVLCLYEASFYAMKHENILEEARIFSTKCLKKYMEKIENEEEKKILLLNDNNINSNLLLINHAFELPLHWRITRSEARWFIDEIYEKKQDMNSTLFEFAKLDFNIVQSTHQEDLQHLSRWWRDCKLGGKLNFARDRLMEAFLWDVGLKFEGEFSYFRRTNARLFVLITIIDDIYDVYGTLEELELFTSAVERWDVKLINELPDYMKMPFFVLHNTINEMGFDVLVEQNFVNIEYLKKSWVDLCKCYLQEAKWYYSGYQPTLEEYTELGWLSIGASVILMHAYFCFTNPITKQDLKSLQLQHHYPNIIKQACLITRLADDLGTSSDELNRGDVPKSIQCYMYDNNATEDEAREHIKFLISETWKDMNKKDEDESCLSENFVEVCKNMARTALFIYENGDGHGSQNSLSKERISTLIITPINIPK
notes: E. coli BL21(DE3); monomer
Take B3: in series [3], the Km came to 4.569 ± 0.411 µM.

B4: CsTPS16CC (Cannabis sativa) (protein)
chain: MSSQVLASSQKNDKTQNIIRPTTKFHPPIWGDRFLHYNISEQELEYKEGQVEELKEVVRKEIFHGNNKRNIINVSKQLKLIDDVERLGLSYHFESEIEKKLQHIYEITTNNIDHQDQHYYYSNHDEDLHDVSIRFRLLRQHGFNISSNIFEKFKDESGKFKESLKSDIEGMLSLYEASYLSYVEENILDEALAFTTTNLKLVANKKEHPLSHEISLALYRPLRKTLVRLYARHYISIYEKQPSHNKVLLQFAKLDFNLLQSLHKKELSEISRWWKELDLANKLPFARNRIVELYLWILGVFHEPQFSLARKILIKAISMASVADDIYDAYGTFEELELLTEAILRWDISFIDKLSPDYLKTYYKVFLNSYEECEKDLKKEERYKLHYAKESMKKLIQAYFHEAQWLNQGHFPSFDEHLKVSFVSSGYPMLIETSFVGMQDVKTNQVFEWLSTQPKIFRACTIISRFMDDLVSRKFEQERNHVPSTVDCYMKQYGVSEQEACDELNKQVVNLWKEINQEFLRPTSMPSSILVRILNFTKVLDIIYKEGDGYTHVGKLVKDSVAALLIDPIPL
notes: E. coli BL21(DE3); monomer
Turning to B4, the Km in series [4] is given as 38.43 ± 2.83 µM.

B5: CsTPS20CT (Cannabis sativa) (protein)
chain: MSNIQVLASSQLSDKIIARPTTKFHPSIWGDRFLHYNISEQDLVCKQEKVEELIQVVKKEILSSNHDQLKLIDNLQRLGLSYHFESEIEKLLEQLSITHHQNHHDLHDASLWFRLLRQHGFNVSSSIFEKFKDEEGNFKESLITDVPGLLSLYEASHLSYVGESILDEALAFTTTHLKAIVANSKDHPLSHQISIVLHRPLRKTIERLHARFYISIYEKDASHNKLLLELAKLDFNLLQCFHKKELSEITRWWKEHEFAKKFPFARDRMVELYFWILGVYYEPKYSRARKLLTKVIALTSITDDIYDAYGTIDELQLLTKAIQRWDINCMDKLKQEYLKTYYKVMLDSYEEFEKELKKEELYKLEYAKEEMKRIIGGYFEEARWLNEGYFPSFDEHLRVSYVSSGNVLLIATSFVGMHDVVTHETLDWLSKDPKIVSASTLLSRFMDDIGSRKFEQKRNHIPSTVDCYMKQYGVSEEEAIKELNKRVDTHWKEINEDFIRPAVVPFPILVRVLNFTKIVDLLYKEGDDQYTNVGKVLKESIAALLIDSIPL
notes: E. coli BL21(DE3); monomer
On to B5, for which the Km in series [5] was found to be 16.86 ± 6.42 µM.
